Fibrinogen-dependent enzymatic activity (amidolytic assay, plasminogen and S-2251) data for one substance are collected here from patent US20030013150A1.

This experiment addresses plasminogen. The experiment is described as follows: cell-based or functional assay.

Consider “Bacteriophages which harbored K2S on gpIII (K2S-?) (from UniProt P00750 209-562)”, for which the fibrinogen-dependent enzymatic activity (amidolytic assay, plasminogen and S-2251) is < 0.25 IU/ml.
